Experimental data reported in patent US20240182536A1 (MURAL ONCOLOGY, published 2024).

T1: IL-18 receptors on HEK-Blue IL-18 reporter cells (UniProt Q13478 19-541; O95256 20-599, limits assumed)
T1 sequence (looked up) 1: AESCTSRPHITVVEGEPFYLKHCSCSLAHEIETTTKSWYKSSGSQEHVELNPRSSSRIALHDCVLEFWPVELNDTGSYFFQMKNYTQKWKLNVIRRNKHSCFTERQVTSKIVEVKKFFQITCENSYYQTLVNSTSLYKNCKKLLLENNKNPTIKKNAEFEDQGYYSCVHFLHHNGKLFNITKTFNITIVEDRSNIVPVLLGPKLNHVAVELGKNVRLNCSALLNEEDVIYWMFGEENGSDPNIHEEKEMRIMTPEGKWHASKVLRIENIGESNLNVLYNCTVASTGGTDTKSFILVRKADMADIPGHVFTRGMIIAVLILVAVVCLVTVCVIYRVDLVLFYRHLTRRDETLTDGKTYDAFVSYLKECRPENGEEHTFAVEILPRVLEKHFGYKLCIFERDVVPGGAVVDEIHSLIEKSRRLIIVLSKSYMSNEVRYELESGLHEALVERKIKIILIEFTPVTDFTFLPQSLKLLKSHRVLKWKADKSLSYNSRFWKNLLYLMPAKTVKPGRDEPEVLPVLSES
T1 sequence (looked up) 2: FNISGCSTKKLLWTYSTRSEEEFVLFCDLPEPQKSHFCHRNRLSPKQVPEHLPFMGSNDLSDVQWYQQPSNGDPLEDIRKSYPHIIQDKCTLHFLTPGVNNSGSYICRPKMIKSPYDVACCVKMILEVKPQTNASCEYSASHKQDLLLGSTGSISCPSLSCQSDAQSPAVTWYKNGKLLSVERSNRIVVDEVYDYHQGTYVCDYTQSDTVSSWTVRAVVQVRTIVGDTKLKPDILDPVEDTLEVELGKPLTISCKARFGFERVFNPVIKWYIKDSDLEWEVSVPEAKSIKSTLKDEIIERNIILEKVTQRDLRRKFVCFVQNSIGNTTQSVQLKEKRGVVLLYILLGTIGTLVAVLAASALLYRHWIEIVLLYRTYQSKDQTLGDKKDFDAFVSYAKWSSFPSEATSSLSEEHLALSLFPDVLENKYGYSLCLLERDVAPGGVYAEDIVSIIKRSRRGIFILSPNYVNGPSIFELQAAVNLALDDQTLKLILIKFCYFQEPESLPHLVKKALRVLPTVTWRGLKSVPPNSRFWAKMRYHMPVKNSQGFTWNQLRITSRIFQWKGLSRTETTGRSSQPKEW

T2: IL-18 binding protein (IL-18BP) (UniProt O95998 31-194)
T2 sequence (looked up): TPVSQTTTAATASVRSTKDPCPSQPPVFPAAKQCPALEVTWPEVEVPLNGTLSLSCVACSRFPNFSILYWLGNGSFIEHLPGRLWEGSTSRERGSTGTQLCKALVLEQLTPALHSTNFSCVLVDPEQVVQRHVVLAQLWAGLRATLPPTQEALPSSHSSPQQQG


Assays:
[1] = biological target: T1, IL-18 receptors on HEK-Blue IL-18 …; assay: cell-based or functional assay
[2] = biological target: T2, IL-18 binding protein (IL-18BP); assay: cell-based or functional assay

Row | Binder | Activity, No BP, DF-100000 [1] | Activity, No BP, DF-500000 [1] | Activity, No BP, DF-2500000 [1] | Activity, +100 nM BP, DF-1000002 [2] | Activity, +100 nM BP, DF-5000003 [2] | Activity, +100 nM BP, DF-25000004 [2] | Ratio (-BP/+BP), DF-1000005 [2] | Ratio (-BP/+BP), DF-5000006 [2] | Ratio (-BP/+BP), DF-25000007 [2]
1 | IL-18 variant G3L, E6Y, D54T, T63S, N91Y, R104Q (ligand) YFLKLYSKLSVIRNLNDQVLFIDQGNRPLFEDMTDSDMRDNAPRTIFIISMYKTSQPRGMAVSISVKSEKISTLSSENKIISFKEMNPPDYIKDTKSDIIFFQQSVPGHDNKMQFESSSYEGYFLASEKERDLFKLILKKEDELGDRSIMFTVQNED | 2.14 | 2.02 | 1.69 | 2.04 | 1.92 | 1.45 | 1.05 | 1.05 | 1.17
2 | IL-18 variant G3P, E6K, D54Y, S55P, T63S, N91S, R104Q, Q154R (ligand) YFPKLKSKLSVIRNLNDQVLFIDQGNRPLFEDMTDSDMRDNAPRTIFIISMYKYPQPRGMAVSISVKSEKISTLSSENKIISFKEMNPPDSIKDTKSDIIFFQQSVPGHDNKMQFESSSYEGYFLASEKERDLFKLILKKEDELGDRSIMFTVRNED | 1.49 | 0.94 | 0.36 | 1.51 | 0.81 | 0.39 | 0.99 | 1.16 | 0.93
3 | IL-18 variant G3P, E6K, D54R, S55P, T63A, N91V (ligand) YFPKLKSKLSVIRNLNDQVLFIDQGNRPLFEDMTDSDMRDNAPRTIFIISMYKRPQPRGMAVAISVKSEKISTLSSENKIISFKEMNPPDVIKDTKSDIIFFQRSVPGHDNKMQFESSSYEGYFLASEKERDLFKLILKKEDELGDRSIMFTVQNED | 1.31 | 0.67 | 0.22 | 1.34 | 0.73 | 0.28 | 0.98 | 0.92 | 0.79
4 | IL-18 variant G3L, E6S, D54T, T63S, N91Y, R104Q (ligand) YFLKLSSKLSVIRNLNDQVLFIDQGNRPLFEDMTDSDMRDNAPRTIFIISMYKTSQPRGMAVSISVKSEKISTLSSENKIISFKEMNPPDYIKDTKSDIIFFQQSVPGHDNKMQFESSSYEGYFLASEKERDLFKLILKKEDELGDRSIMFTVQNED | 2.11 | 1.98 | 1.73 | 2.06 | 1.95 | 1.44 | 1.02 | 1.02 | 1.2
5 | IL-18 variant G3Q, E6H, K53T, D54S, S55Y, N91Y, R104K (ligand) YFQKLHSKLSVIRNLNDQVLFIDQGNRPLFEDMTDSDMRDNAPRTIFIISMYTSYQPRGMAVTISVKSEKISTLSSENKIISFKEMNPPDYIKDTKSDIIFFQKSVPGHDNKMQFESSSYEGYFLASEKERDLFKLILKKEDELGDRSIMFTVQNED | 1.52 | 0.95 | 0.31 | 1.48 | 0.88 | 0.29 | 1.03 | 1.08 | 1.08
6 | IL-18 variant G3Q, E6Q, K53T, D54W, S55F, N91Y (ligand) YFQKLQSKLSVIRNLNDQVLFIDQGNRPLFEDMTDSDMRDNAPRTIFIISMYTWFQPRGMAVTISVKSEKISTLSSENKIISFKEMNPPDYIKDTKSDIIFFQRSVPGHDNKMQFESSSYEGYFLASEKERDLFKLILKKEDELGDRSIMFTVQNED | 1.23 | 0.54 | 0.17 | 1.14 | 0.45 | 0.14 | 1.08 | 1.21 | 1.2
7 | IL-18 variant G3P, E6K, D54Y, S55P, Q56H, T63S, N91S, R104Q (ligand) YFPKLKSKLSVIRNLNDQVLFIDQGNRPLFEDMTDSDMRDNAPRTIFIISMYKYPHPRGMAVSISVKSEKISTLSSENKIISFKEMNPPDSIKDTKSDIIFFQQSVPGHDNKMQFESSSYEGYFLASEKERDLFKLILKKEDELGDRSIMFTVQNED | 1.63 | 1.1 | 0.53 | 1.69 | 1.08 | 0.54 | 0.96 | 1.02 | 0.98
8 | IL-18 variant G3P, E6H, D54A, S55P, Q56K, T63S, N91M (ligand) YFPKLHSKLSVIRNLNDQVLFIDQGNRPLFEDMTDSDMRDNAPRTIFIISMYKAPKPRGMAVSISVKSEKISTLSSENKIISFKEMNPPDMIKDTKSDIIFFQRSVPGHDNKMQFESSSYEGYFLASEKERDLFKLILKKEDELGDRSIMFTVQNED | 1.2 | 0.63 | 0.17 | 1.24 | 0.61 | 0.19 | 0.97 | 1.03 | 0.9
9 | IL-18 variant G3P, E6K, D54Y, S55P, T63S, N91S, R104Q (ligand) YFPKLKSKLSVIRNLNDQVLFIDQGNRPLFEDMTDSDMRDNAPRTIFIISMYKYPQPRGMAVSISVKSEKISTLSSENKIISFKEMNPPDSIKDTKSDIIFFQQSVPGHDNKMQFESSSYEGYFLASEKERDLFKLILKKEDELGDRSIMFTVQNED | 1.75 | 1.32 | 0.72 | 1.8 | 1.35 | 0.77 | 0.97 | 0.97 | 0.93
10 | IL-18 variant G3P, E6H, N91L (ligand) YFPKLHSKLSVIRNLNDQVLFIDQGNRPLFEDMTDSDMRDNAPRTIFIISMYKDSQPRGMAVTISVKSEKISTLSSENKIISFKEMNPPDLIKDTKSDIIFFQRSVPGHDNKMQFESSSYEGYFLASEKERDLFKLILKKEDELGDRSIMFTVQNED | 1.45 | 0.9 | 0.29 | 1.52 | 0.93 | 0.33 | 0.95 | 0.97 | 0.87
11 | IL-18 variant G3P, E6V, K53A, D54W, S55P, T63S, N91L, R104K (ligand) YFPKLVSKLSVIRNLNDQVLFIDQGNRPLFEDMTDSDMRDNAPRTIFIISMYAWPQPRGMAVSISVKSEKISTLSSENKIISFKEMNPPDLIKDTKSDIIFFQKSVPGHDNKMQFESSSYEGYFLASEKERDLFKLILKKEDELGDRSIMFTVQNED | 1.18 | 0.52 | 0.19 | 1.21 | 0.57 | 0.18 | 0.98 | 0.9 | 1.04
12 | IL-18 variant G3D, E6G, K53G, D54A, T63S, N91Y, R104Q (ligand) YFDKLGSKLSVIRNLNDQVLFIDQGNRPLFEDMTDSDMRDNAPRTIFIISMYGASQPRGMAVSISVKSEKISTLSSENKIISFKEMNPPDYIKDTKSDIIFFQQSVPGHDNKMQFESSSYEGYFLASEKERDLFKLILKKEDELGDRSIMFTVQNED | 1.36 | 0.72 | 0.21 | 1.33 | 0.73 | 0.19 | 1.02 | 0.98 | 1.14
